Experimental findings from PMC10514136, “Peptide-conjugated antimiRs improve myotonic dystrophy type 1 phenotypes by promoting endogenous MBNL1 expression” (Molecular Therapy. Nucleic Acids, 2023) are described below.

One data set concerns HSALR mice. The data set can be described thus: White blood cell differential count. It is filed as in vivo, mouse. The source says: (§1) Mouse handling and experimental procedures followed the European law regarding laboratory animal care and experimentation (2003/65/C.E.) and were approved by Conselleria de Agricultura, […] (reference no. A1539961490857). We used homozygous transgenic HSA^LR (line 20 b) mice,[90] which were kindly provided by Dr Thornton (Rochester, NY) and were housed and bred in our animal facility. […] The mice were randomly allocated to the different treatments as follows: in each cage, each mouse was ear-marked as it was taken out, and each mouse was then assigned to a different treatment. Animals were injected biweekly intravenously with 150 μL of 1× PBS vehicle (controls; […] Mice were sacrificed 45 days after the first injection and the tissues of interest were frozen in liquid nitrogen for the molecular and histological assays. All the mice used in this study ranged from 5 to 5.5 months of age and all were males. At 45 days post treatment, animals were sacrificed, and blood was collected by cardiac puncture exsanguination with K3-EDTA (Sarstedt, Nümbrecht, Germany). The samples were analyzed by Laboratorios Montoro Botella (Valencia, Spain).

The nature of data set [1]: Bodyweight-normalized spleen weight and body weight. It is filed as in vivo, mouse.
Description: as §1, with “males.” for “males. At 45 days post treatment, animals were sacrificed, and blood was collected by cardiac puncture exsanguination with K3-EDTA (Sarstedt, Nümbrecht, Germany). The samples were analyzed by Laboratorios Montoro Botella (Valencia, Spain).”

The subject of the next data set is Mbnl1 protein. In words: Western blot of Mbnl1 in mouse muscle. On the set-up: scale not given here. It counts as in vivo. The note with it: HSALR mice, quadriceps, same value given for every mouse of a treatment group. The method, then:
A 96-well plate QDB assay was used[87] to determine MBNL1 protein levels in all replicates and concentrations of each ON tested. This technique allows for high-throughput screening of low protein concentration samples over conventional western blot (WB) (Figure S9).[88] Cell samples (1 μg/well) and mice samples (2 μg/well) were prepared with 4× loading buffer, denatured (100°C for 5 min) and loaded in QDB plates (Quanticision Diagnostics, Research Triangle Park, NC). For the quantification of in vitro samples, the QDB was performed exactly as described in Moreno et al.[87] Each cell sample was loaded in quadruplicate in two different plates; one was used to detect MBNL1 (it was incubated overnight with primary mouse anti-MBNL1 [1:1,000, Abcam, ab77017]) and the other for GAPDH (it was incubated overnight with primary mouse anti-GAPDH [1:500, Santa Cruz, clone G-9]), which was used here as an endogenous control. For Mbnl1 quantification in mouse muscle tissues, we implemented the following modifications: each sample was loaded in quadruplicate on three different plates. One was used to detect Mbnl1 with a mouse MB1a(4A8) antibody (DSHB, Iowa City, IA) using a 1:200 dilution. A second plate was used to quantify tubulin (endogenous normalization control) with a mouse 12G10 antibody (DSHB) using a 1:1,000 dilution. A third plate was used to quantify IgG signal (negative control to subtract background) using an anti-mouse-IgG secondary antibody (Sigma-Aldrich) at 1:3,500 dilution. This subtraction was necessary due to an unspecific IgG signal could be observed in mouse samples (Figures S10A–S10D). All primary antibodies were detected using horseradish peroxidase-conjugated anti-mouse-IgG secondary antibody (1:5,000 for the anti-mouse plate, 1:2,000 for cell plates, and 1:3,500 for mouse plates [Sigma-Aldrich, MO]). Immunoreactive bands were detected using Pierce ECL Western reagent (Thermo Scientific), and luminescence levels were determined using an Infinite M200 PRO plate reader (Tecan). The validity of this correction for QDB quantification of mouse samples was confirmed by performing a series of experiments determining both the window of linearity of the assay (2–5 μg protein, Figures S10A–S10B) and the comparison with data obtained by WB in a subset of samples (Figures S10E–S10H), obtaining a correlation of 0.9927 for MBNL1 and 0.8678 for tubulin (in the case of quadriceps), and 0.9821 for MBNL1 and 0.9699 for tubulin (in gastrocnemius). For WB assay in quadriceps (Figure S10I), samples were loaded in pools of each treatment to have a representative WB of all the treatments tested. WB assay was performed as described previously.[20]
On the technique in general: Immunoblotting shows a protein as a band on a membrane.

[2] abbreviates: HSALR mice, 9.2 mg/kg (mean) i.v. x3, day 45, blood, differential count, mean ± sd.

Take “6aKC-23b (antisense GGUAAUCCCUGGCAAUGUGAU; all phosphorodiamidate morpholino (PMO), T or U not given here; Pip6aKC peptide conjugated)”: in the data set with HSALR mice (mouse, in vivo, iv, 9.2 mg/kg), the Basophils is recorded as 0 ± 0%, the Eosinophils is 2,40 ± 1,341%, the Lymphocytes is 47,80 ± 12,133% and the Monocytes is 17,60 ± 7,537%. The Seg cells with HSALR mice (mouse, in vivo, iv, 9.2 mg/kg) was 31,2 ± 13,142%. Also, the Weight in data set [1] (mouse, in vivo, iv, 9.2 mg/kg) is given as 39.84 ± 3,561 g. Moreover, the “Mbnl1 Quads, WB assay” value in the data set with Mbnl1 protein (western blot) amounted to 1.13.
In the case of “6aKC-218 (antisense ACAUGGUUAGAUCAAGCACAA; all phosphorodiamidate morpholino (PMO), T or U not given here; Pip6aKC peptide conjugated)”, in the data set on HSALR mice (mouse, in vivo, iv, 9.2 mg/kg), the Basophils was 0 ± 0%, the Eosinophils is 0,60 ± 0,894%, the Lymphocytes is 57,20 ± 12,357% and the Monocytes is on record as 21,40 ± 7,127%. Also, the Seg cells in the data set on HSALR mice (mouse, in vivo, iv, 9.2 mg/kg) is recorded as 20,4 ± 6,189%. Also, the Weight in data set [1] (mouse, in vivo, iv, 9.2 mg/kg) was 39,02 ± 1,460 g. Besides, the “Mbnl1 Quads, WB assay” value in the data set with Mbnl1 protein (protein) is 1.02.
Take “9b2-23b (antisense GGUAAUCCCUGGCAAUGUGAU; all phosphorodiamidate morpholino (PMO), T or U not given here; Pip9b2 peptide conjugated)”: in the data set on HSALR mice (mouse, in vivo, iv, 9.2 mg/kg), the Basophils was 0,2 ± 0,447%, the Eosinophils is reported as 6,20 ± 2,588%, the Lymphocytes is 65,40 ± 6,189% and the Monocytes is 6,20 ± 2,683%. Besides, the Seg cells with HSALR mice (mouse, in vivo, iv, 9.2 mg/kg) is recorded as 21 ± 3,391%. Moreover, in data set [1] (mouse, in vivo), the “Weight (g) W.0” value came out at 28.7 g, the “Weight (g) W.1” value turned out to be 29.2 g, the “Weight (g) W.2” value is 28.6 g and the “Weight (g) W.3” value worked out at 29 g. For the same substance, in data set [1] (mouse, in vivo), the “Weight (g) W.4” value was determined as 29.1 g, the “Weight (g) W.5” value came out at 29.4 g and the “Weight (g) W.6” value is 29.1 g. The Weight in data set [1] (mouse, in vivo, iv, 9.2 mg/kg) is on record as 32,78 ± 4,285 g. Besides, in the data set on Mbnl1 protein (protein), the “Mbnl1 Quads, WB assay” value worked out at 1.46. In addition, the “Mbnl1 Quads, WB assay” value with Mbnl1 protein (western blot) amounted to 1.46.
In the case of “9b2-218 (antisense ACAUGGUUAGAUCAAGCACAA; all phosphorodiamidate morpholino (PMO), T or U not given here; Pip9b2 peptide conjugated)”, in the data set on HSALR mice (mouse, in vivo, iv, 9.2 mg/kg), the Basophils is 0,2 ± 0,447%, the Eosinophils is recorded as 5,40 ± 2,073%, the Lymphocytes is given as 61,60 ± 4,159% and the Monocytes was 9,60 ± 3,209%. In addition, the Seg cells in the data set with HSALR mice (mouse, in vivo, iv, 9.2 mg/kg) was 22,40 ± 3,647%. Also, in data set [1] (mouse, in vivo, iv, 9.2 mg/kg), the Weight is recorded as 30,76 ± 2,745 g. Moreover, the “Mbnl1 Quads, WB assay” value with Mbnl1 protein (protein) turned out to be 1.58.
With “9b2KC-23b (antisense GGUAAUCCCUGGCAAUGUGAU; all phosphorodiamidate morpholino (PMO), T or U not given here; Pip9b2KC peptide conjugated)”, in the data set on HSALR mice (mouse, in vivo, iv, 9.2 mg/kg), the Basophils was 0 ± 0%, the Eosinophils is reported as 9,50 ± 3,109%, the Lymphocytes is on record as 60,25 ± 6,185% and the Monocytes is reported as 5,75 ± 2,363%. Besides, the Seg cells in the data set with HSALR mice (mouse, in vivo, iv, 9.2 mg/kg) is recorded as 23,5 ± 4,203%. Besides, in data set [1] (mouse, in vivo, iv, 9.2 mg/kg), the Weight is on record as 32,22 ± 5,551 g. Besides, the “Mbnl1 Quads, WB assay” value in the data set with Mbnl1 protein (western blot) stood at 1.36.
In the case of “9b2KC-218 (antisense ACAUGGUUAGAUCAAGCACAA; all phosphorodiamidate morpholino (PMO), T or U not given here; Pip9b2KC peptide conjugated)”, in the data set on HSALR mice (mouse, in vivo, iv, 9.2 mg/kg), the Basophils came to 0 ± 0%, the Eosinophils is 7,20 ± 2,28%, the Lymphocytes is reported as 59,60 ± 3,130% and the Monocytes is on record as 6,40 ± 2,074%. For the same substance, the Seg cells in the data set on HSALR mice (mouse, in vivo, iv, 9.2 mg/kg) is given as 25,8 ± 4,324%. Besides, the Weight in data set [1] (mouse, in vivo, iv, 9.2 mg/kg) was 31,28 ± 4,11 g. Also, the “Mbnl1 Quads, WB assay” value in the data set on Mbnl1 protein (protein) was found to be 1.44.
As to “TCTTACCTCAGTTACAATTTA-Pip9b2 [Scramble, reference compound]”, in the data set on HSALR mice (setting [2]), the Basophils came out at 0 ± 0%, the Eosinophils is 2 ± 0,707%, the Lymphocytes is reported as 60 ± 14,543% and the Monocytes is 11,60 ± 7,829%. In addition, in the data set on HSALR mice (setting [2]), the Seg cells was 25,8 ± 8,349% and the Stab cells is 0,60 ± 0,548%. Further, the Spleen weight ratio in data set [1] (HSALR mice, 9.2 mg/kg (mean) i.v. x3, day 45, bodyweight-normalized, mean ± sd, n = 5) is given as 0,0029 ± 0,0005. Moreover, the Weight in data set [1] (HSALR mice, 9.2 mg/kg (mean) i.v. x3, body weight, mean ± sd, n = 5) was 37,36 ± 2,928 g. The “Mbnl1 Quads, WB assay” value in the data set with Mbnl1 protein (protein) was 1.00.
